Test results published in paper PMC6007489 (Nucleic Acids Research, 2018).

T1: His–rad1R218A–Rad10 (S. cerevisiae, UniProt P06777 1-1100; P06838 1-210, R218A)
T1 sequence (looked up) 1: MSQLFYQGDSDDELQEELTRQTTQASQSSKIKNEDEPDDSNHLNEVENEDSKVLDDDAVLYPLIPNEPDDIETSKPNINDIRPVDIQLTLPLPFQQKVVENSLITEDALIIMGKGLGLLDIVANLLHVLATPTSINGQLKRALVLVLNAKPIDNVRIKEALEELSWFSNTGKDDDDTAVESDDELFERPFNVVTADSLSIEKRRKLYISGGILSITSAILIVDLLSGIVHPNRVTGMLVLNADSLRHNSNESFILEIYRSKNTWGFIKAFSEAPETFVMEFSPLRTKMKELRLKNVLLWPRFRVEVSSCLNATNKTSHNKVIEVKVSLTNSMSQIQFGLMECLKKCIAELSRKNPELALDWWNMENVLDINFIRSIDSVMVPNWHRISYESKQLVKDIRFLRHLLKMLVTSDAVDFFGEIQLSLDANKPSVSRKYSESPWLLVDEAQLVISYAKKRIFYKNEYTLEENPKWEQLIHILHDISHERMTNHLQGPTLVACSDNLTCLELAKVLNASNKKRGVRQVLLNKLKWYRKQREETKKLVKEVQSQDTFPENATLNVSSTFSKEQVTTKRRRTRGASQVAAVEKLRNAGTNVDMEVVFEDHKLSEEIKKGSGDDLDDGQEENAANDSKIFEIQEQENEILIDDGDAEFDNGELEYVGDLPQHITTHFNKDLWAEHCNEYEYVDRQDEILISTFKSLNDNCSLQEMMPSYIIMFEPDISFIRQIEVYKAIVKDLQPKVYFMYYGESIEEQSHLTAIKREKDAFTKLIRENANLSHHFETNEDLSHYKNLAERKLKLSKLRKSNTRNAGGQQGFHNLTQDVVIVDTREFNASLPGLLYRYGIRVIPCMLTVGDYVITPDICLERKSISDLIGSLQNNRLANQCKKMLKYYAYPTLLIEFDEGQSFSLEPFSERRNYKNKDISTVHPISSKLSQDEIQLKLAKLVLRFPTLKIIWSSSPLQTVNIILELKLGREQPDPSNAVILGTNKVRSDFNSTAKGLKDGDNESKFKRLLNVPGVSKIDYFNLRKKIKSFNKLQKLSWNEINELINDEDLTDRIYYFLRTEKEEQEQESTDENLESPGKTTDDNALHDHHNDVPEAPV
T1 sequence (looked up) 2: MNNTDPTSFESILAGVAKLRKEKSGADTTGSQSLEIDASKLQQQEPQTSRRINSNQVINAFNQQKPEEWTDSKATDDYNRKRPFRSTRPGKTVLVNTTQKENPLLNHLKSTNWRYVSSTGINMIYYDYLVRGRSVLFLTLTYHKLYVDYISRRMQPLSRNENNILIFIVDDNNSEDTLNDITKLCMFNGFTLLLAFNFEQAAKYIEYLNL

B1: Msh2–Msh3 (complex, S. cerevisiae)
chain 1: MSSTRPELKFSDVSEERNFYKKYTGLPKKPLKTIRLVDKGDYYTVIGSDAIFVADSVYHTQSVLKNCQLDPVTAKNFHEPTKYVTVSLQVLATLLKLCLLDLGYKVEIYDKGWKLIKSASPGNIEQVNELMNMNIDSSIIIASLKVQWNSQDGNCIIGVAFIDTTAYKVGMLDIVDNEVYSNLESFLIQLGVKECLVQDLTSNSNSNAEMQKVINVIDRCGCVVTLLKNSEFSEKDVELDLTKLLGDDLALSLPQKYSKLSMGACNALIGYLQLLSEQDQVGKYELVEHKLKEFMKLDASAIKALNLFPQGPQNPFGSNNLAVSGFTSAGNSGKVTSLFQLLNHCKTNAGVRLLNEWLKQPLTNIDEINKRHDLVDYLIDQIELRQMLTSEYLPMIPDIRRLTKKLNKRGNLEDVLKIYQFSKRIPEIVQVFTSFLEDDSPTEPVNELVRSVWLAPLSHHVEPLSKFEEMVETTVDLDAYEENNEFMIKVEFNEELGKIRSKLDTLRDEIHSIHLDSAEDLGFDPDKKLKLENHHLHGWCMRLTRNDAKELRKHKKYIELSTVKAGIFFSTKQLKSIANETNILQKEYDKQQSALVREIINITLTYTPVFEKLSLVLAHLDVIASFAHTSSYAPIPYIRPKLHPMDSERRTHLISSRHPVLEMQDDISFISNDVTLESGKGDFLIITGPNMGGKSTYIRQVGVISLMAQIGCFVPCEEAEIAIVDAILCRVGAGDSQLKGVSTFMVEILETASILKNASKNSLIIVDELGRGTSTYDGFGLAWAIAEHIASKIGCFALFATHFHELTELSEKLPNVKNMHVVAHIEKNLKEQKHDDEDITLLYKVEPGISDQSFGIHVAEVVQFPEKIVKMAKRKANELDDLKTNNEDLKKAKLSLQEVNEGNIRLKALLKEWIRKVKEEGLHDPSKITEEASQHKIQELLRAIANEPEKENDNYLKYIKALLL
chain 2: MAGQPTISRFFKKAVKSELTHKQEQEVAVGNGAGSESICLDTDEEDNLSSVASTTVTNDSFPLKGSVSSKNSKNSEKTSGTSTTFNDIDFAKKLDRIMKRRSDENVEAEDDEEEGEEDFVKKKARKSPTAKLTPLDKQVKDLKMHHRDKVLVIRVGYKYKCFAEDAVTVSRILHIKLVPGKLTIDESNPQDCNHRQFAYCSFPDVRLNVHLERLVHHNLKVAVVEQAETSAIKKHDPGASKSSVFERKISNVFTKATFGVNSTFVLRGKRILGDTNSIWALSRDVHQGKVAKYSLISVNLNNGEVVYDEFEEPNLADEKLQIRIKYLQPIEVLVNTDDLPLHVAKFFKDISCPLIHKQEYDLEDHVVQAIKVMNEKIQLSPSLIRLVSKLYSHMVEYNNEQVMLIPSIYSPFASKIHMLLDPNSLQSLDIFTHDGGKGSLFWLLDHTRTSFGLRMLREWILKPLVDVHQIEERLDAIECITSEINNSIFFESLNQMLNHTPDLLRTLNRIMYGTTSRKEVYFYLKQITSFVDHFKMHQSYLSEHFKSSDGRIGKQSPLLFRLFSELNELLSTTQLPHFLTMINVSAVMEKNSDKQVMDFFNLNNYDCSEGIIKIQRESESVRSQLKEELAEIRKYLKRPYLNFRDEVDYLIEVKNSQIKDLPDDWIKVNNTKMVSRFTTPRTQKLTQKLEYYKDLLIRESELQYKEFLNKITAEYTELRKITLNLAQYDCILSLAATSCNVNYVRPTFVNGQQAIIAKNARNPIIESLDVHYVPNDIMMSPENGKINIITGPNMGGKSSYIRQVALLTIMAQIGSFVPAEEIRLSIFENVLTRIGAHDDIINGDSTFKVEMLDILHILKNCNKRSLLLLDEVGRGTGTHDGIAISYALIKYFSELSDCPLILFTTHFPMLGEIKSPLIRNYHMDYVEEQKTGEDWMSVIFLYKLKKGLTYNSYGMNVAKLARLDKDIINRAFSISEELRKESINEDALKLFSSLKRILKSDNITATDKLAKLLSLDIH

Tests used:
His–rad1R218A–Rad10 = biological target: T1, His–rad1R218A–Rad10; assay: co-IP
Msh2–Msh3 = biological target: B1; assay: far-Western, overlay or dot blot

Binder | fold enhancement of the interaction by non-specific DNA (His–rad1R218A–Rad10) [fold] | fold lower binding than His–Rad1–Rad10 (Msh2–Msh3) [fold]
B1 | ~2 | –
His–rad1R203A,K205A–Rad10 (complex, S. cerevisiae) chain 1: MSQLFYQGDSDDELQEELTRQTTQASQSSKIKNEDEPDDSNHLNEVENEDSKVLDDDAVLYPLIPNEPDDIETSKPNINDIRPVDIQLTLPLPFQQKVVENSLITEDALIIMGKGLGLLDIVANLLHVLATPTSINGQLKRALVLVLNAKPIDNVRIKEALEELSWFSNTGKDDDDTAVESDDELFERPFNVVTADSLSIEKARALYISGGILSITSRILIVDLLSGIVHPNRVTGMLVLNADSLRHNSNESFILEIYRSKNTWGFIKAFSEAPETFVMEFSPLRTKMKELRLKNVLLWPRFRVEVSSCLNATNKTSHNKVIEVKVSLTNSMSQIQFGLMECLKKCIAELSRKNPELALDWWNMENVLDINFIRSIDSVMVPNWHRISYESKQLVKDIRFLRHLLKMLVTSDAVDFFGEIQLSLDANKPSVSRKYSESPWLLVDEAQLVISYAKKRIFYKNEYTLEENPKWEQLIHILHDISHERMTNHLQGPTLVACSDNLTCLELAKVLNASNKKRGVRQVLLNKLKWYRKQREETKKLVKEVQSQDTFPENATLNVSSTFSKEQVTTKRRRTRGASQVAAVEKLRNAGTNVDMEVVFEDHKLSEEIKKGSGDDLDDGQEENAANDSKIFEIQEQENEILIDDGDAEFDNGELEYVGDLPQHITTHFNKDLWAEHCNEYEYVDRQDEILISTFKSLNDNCSLQEMMPSYIIMFEPDISFIRQIEVYKAIVKDLQPKVYFMYYGESIEEQSHLTAIKREKDAFTKLIRENANLSHHFETNEDLSHYKNLAERKLKLSKLRKSNTRNAGGQQGFHNLTQDVVIVDTREFNASLPGLLYRYGIRVIPCMLTVGDYVITPDICLERKSISDLIGSLQNNRLANQCKKMLKYYAYPTLLIEFDEGQSFSLEPFSERRNYKNKDISTVHPISSKLSQDEIQLKLAKLVLRFPTLKIIWSSSPLQTVNIILELKLGREQPDPSNAVILGTNKVRSDFNSTAKGLKDGDNESKFKRLLNVPGVSKIDYFNLRKKIKSFNKLQKLSWNEINELINDEDLTDRIYYFLRTEKEEQEQESTDENLESPGKTTDDNALHDHHNDVPEAPV chain 2: MNNTDPTSFESILAGVAKLRKEKSGADTTGSQSLEIDASKLQQQEPQTSRRINSNQVINAFNQQKPEEWTDSKATDDYNRKRPFRSTRPGKTVLVNTTQKENPLLNHLKSTNWRYVSSTGINMIYYDYLVRGRSVLFLTLTYHKLYVDYISRRMQPLSRNENNILIFIVDDNNSEDTLNDITKLCMFNGFTLLLAFNFEQAAKYIEYLNL | – | ~4
